Experimental findings from US20250195657A1 (NEOMICS PHARMACEUTICALS, published 2025) are described below.

A word on the Kd: it is the free concentration of one partner at which half of the binding sites on the other are occupied at equilibrium, for simple one-to-one binding. High values mean lower affinity, low ones higher affinity.

The target of the test is T1, B cell maturation antigen (BCMA) (UniProt Q02223 1-54, limits assumed).
T1 construct: also called CD269; TNFRSF17
T1 sequence (looked up): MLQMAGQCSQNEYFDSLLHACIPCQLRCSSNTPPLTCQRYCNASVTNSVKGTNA
Kind of test: not stated (no method given).

B1: BCMA nanobody (BCMA binding domain of NPB5005) (VHH)
VHH: EVQLQASGGGLAQPGGSLRLSCAASGRTFSTYFMAWFRQPPGKGLEYVGGIRWSDGVPHYADSVKGRFTISRDNAKNTVYLQMNSLRAEDTAVYFCASRGIADGSDFGSYGQGTQVTVSS
Molecule B1 came in with a Kd of 1 nM.
